This passage reports EC50 and Kd results from patent US20220119522A1 (DENALI THERAPEUTICS, published 2022).

Usually EC50 stands for the midpoint of the concentration-response curve. A high value points to a less potent agent. As a reminder, the Kd is a measure of binding affinity in units of concentration.

Experiment [1] concerns the target T1, human TREM2 on the cell surface (human, UniProt Q9NZC2 19-230).
T1 construct: also called surface TREM2; TREM2 expressed in HEK293-H6 cells
T1 sequence: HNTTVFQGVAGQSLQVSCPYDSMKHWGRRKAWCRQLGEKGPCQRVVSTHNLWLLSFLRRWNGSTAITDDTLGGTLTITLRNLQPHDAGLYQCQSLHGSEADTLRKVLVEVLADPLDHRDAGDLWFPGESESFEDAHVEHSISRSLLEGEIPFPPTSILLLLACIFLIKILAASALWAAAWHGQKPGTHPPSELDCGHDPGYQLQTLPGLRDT
Briefly: flow cytometry, dose-titrated binding to HEK293-H6 cells. How it is done: After incubation, the cells were centrifuged and washed in FACS buffer (PBS+0.5% BSA) twice. Mixed cells were resuspended in FACS buffer with human Trustain FcX solution (Biolegend, Catalog No. 422302) at a density of 10⁶/mL per cell line. The mixed cell lines were seeded at 200,000 cells per well in a 96-well round-bottom plate and incubated for 20 minutes at room temperature. After incubation, the cells were centrifuged and incubated with anti-TREM2 antibodies of about 0-200 nM dose titration for 45 minutes on ice. After incubation, the cells were centrifuged and washed with FACS buffer three times. […] After incubation, the cells were washed with FACS buffer three times, resuspended in 100 μL of FACS buffer, and analyzed by flow cytometry (BD FACSCanto II, San Jose, Calif.), for which 30,000 events were obtained for each sample. Mean fluorescence intensity per cells were calculated by FlowJo software and used for generating dose response binding curve.
(§1) Sequence optimization was conducted by searching within CDR sequences for residues that are susceptible to chemical modification (e.g., asparagine deamidation motifs (NG), aspartic acid isomerization motifs (DS), and potential oxidation residues (tryptophan (W) and methionine (M)) and making amino acid substitutions with conservative and germline residues to remove such sequence liabilities. Humanized and sequence-optimized variants of anti-TREM2 antibodies were then analyzed for binding kinetics using Biacore and dose-titrated cell binding to HEK293-H6 cells (see, Example 1 for representative protocols).

The target in experiment [2] is T2, His-tagged human TREM2 ECD (human, UniProt Q9NZC2 19-172).
T2 construct: Biacore and HDX say only recombinant human TREM2 (ECD); also called recombinant human TREM2; hTREM2
T2 sequence: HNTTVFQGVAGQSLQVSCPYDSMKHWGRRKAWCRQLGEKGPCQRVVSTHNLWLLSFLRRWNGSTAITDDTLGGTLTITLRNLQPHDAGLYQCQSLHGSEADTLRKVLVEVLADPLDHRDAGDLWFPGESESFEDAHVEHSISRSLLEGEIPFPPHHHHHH
Briefly: SPR (Biacore). Here is the method: (§2) Surface plasmon resonance (Biacore™ 8K instrument) was used to measure anti-TREM2 antibody affinities for human and cynomolgus TREM2 ECD. Anti-TREM2 antibodies were captured using Human Fab Capture Kit (GE Healthcare Life Sciences, Catalog No. 28958325) on a Biacore Series S CM5 sensor chip (GE Healthcare Life Sciences, Catalog No. 29149604). Serial 3-fold dilutions of recombinant human or cynomolgus TREM2 were injected at a flow rate of 30 μL/min. Antibody binding was monitored for 300 seconds, followed by monitoring of antibody dissociation for 600+seconds in HBS-EP+ running buffer (GE Healthcare Life Sciences, Catalog No. BR100669). The binding response was corrected by subtracting the RU value from a blank flow cell. A 1:1 Languir model of simultaneous fitting of kₒₙ and koff was used for kinetics analysis.
as §1
Background: SPR reads the build-up and loss of mass on a sensor chip optically.

Experiment [3] concerns the target T3, recombinant cynomolgus TREM2 ECD (cynomolgus).
T3 construct: extracellular domain; also called cyno TREM2
Nature of the experiment: SPR (Biacore). Here is the method:
as §2, with “analysis. […]” for “analysis.”

For experiment [4], the target named is T2, His-tagged human TREM2 ECD. Nature of the experiment: SPR (Biacore). Here is the method: as §2, with “analysis. […]” for “analysis.”
This is another data set of the same source.

In experiment [5] the target is T4, human soluble TREM2 (sTREM2) (human, UniProt Q9NZC2 19-157, limits assumed).
T4 construct: Native shed sTREM2; also called sTREM2 in Human CSF; sTREM2 in huTrem2 KI mouse plasma
T4 sequence: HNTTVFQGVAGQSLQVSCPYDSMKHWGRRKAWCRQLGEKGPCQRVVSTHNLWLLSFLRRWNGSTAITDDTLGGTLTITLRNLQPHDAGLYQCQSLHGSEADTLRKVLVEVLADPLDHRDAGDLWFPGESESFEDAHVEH
Nature of the experiment: MSD assay: sTREM2 captured from healthy human CSF, sulfo-tagged antibody titrated. How it is done: (§3) The affinity of anti-TREM2 antibodies to human TREM2 and cynomolgus TREM2 were measured by Biacore (described in Example 1). The potency of anti-TREM2 antibodies were measured in healthy human volunteer CSF samples (Innovative Research) and healthy cynomolgus monkey CSF samples (Worldwide Primates), by MSD assay. The potency of each antibody was determined by its EC50. Briefly, MSD GOLD 96-well small spot streptavidin plates (MSD, Cat. No. L45SA) coated with capture antibody (biotinylated goat anti-human TREM2, R&D Systems, Cat. No. BAF1828) was incubated with biofluid samples diluted 1:3 in Assay Buffer (25% (v/v) MSD Blocker A (MSD, Cat. No. R93BA-A), 75% (v/v) TBST) for one hour at room temperature. After rinsing the wells with TBST, sulfo-tagged anti-TREM2 antibody was added in a serial dilution (4×dilution over 11 points) to the wells of the plate and incubated for one hour at room temperature. The wells were washed with TBST, and MSD Read Buffer (MSD, Cat. No. R92TC-3) was added to the wells. Signal from the samples were measured using an MSD Meso Sector 5600 device. EC50 values for each antibody was determined by four-parameter variable slope non-linear regression. The variable regions of reference antibody #1 are represented by SEQ ID NOS:344 and 345. The variable regions of reference antibody #2 are represented by SEQ ID NOS:346 and 347. The variable regions of reference antibody #3 are represented by SEQ ID NOS:348 and 349.

Experiment [6] concerns the target T5, cynomolgus soluble TREM2 (sTREM2) (cynomolgus).
T5 construct: also called sTREM2 in Cyno CSF
Briefly: MSD assay: sTREM2 captured from healthy cynomolgus CSF, sulfo-tagged antibody titrated. Here is the method:
as §3

Read-outs that look alike come from different tables or passages of the source.

B1: CL0020123-5 (antibody, V domains shown)
VH: QVQLVQSGAEVKKPGASVKVSCKASGFSIEDFYIHWVRQAPGQGLEWMGWIDPEQGESKYAPKFQGRATITADTSTSTAYMELSSLRSEDTAVYYCHADHGNYGSTMDYWGQGTLVTVSS
VL: DIQMTQSPSSLSASVGDRVTITCHASQHINVWLSWYQQKPGKAPKLLIYKASNLHTGVPSRFSGSGSGTDFTLTISSLQPEDFATYYCQQGQTYPRTFGQGTKVEIK
notes: Humanized variant of CL0020123 (hVH QGES/2 m, Vk graft); also called Clone CL0020123-5
For B1, the figures for the EC50 in experiment [1], in experiment [5] and in experiment [6] were 0.37 nM, 1 nM and 49.4 nM, respectively. For the same molecule, the figures for the Kd in experiment [2], in experiment [3] and in experiment [4] were 0.44 nM, 9.3 nM and 0.63 nM, respectively.

B2: CL0020123-7 (antibody, V domains shown)
VH: QVQLVQSGAEVKKPGASVKVSCKASGFSIEDFYIHWVRQAPGQGLEWMGWIDPENGESKYAPKFQGRVTITADTSTSTAYMELSSLRSEDTAVYYCHADHGNYGSTMDYWGQGTLVTVSS
VL: DIQMTQSPSSLSASVGDRVTITCHASQHINVWLSWYQQKPGKAPKLLIYKASNLHTGVPSRFSGSGSGTDFTLTISSLQPEDFATYYCQQGQTYPRTFGQGTKVEIK
notes: Humanized variant of CL0020123 (hVH NGES/1 m, Vk graft); also called Clone CL0020123-7
As to B2, the results for the 50% effective concentration (EC50) in experiment [1], in experiment [5] and in experiment [6] were 0.19 nM, 0.54 nM and 16.9 nM, respectively. The dissociation constant Kd came to 0.15 nM in experiment [2], 9.4 nM in experiment [3] and 0.08 nM in experiment [4].

B3: Reference antibody #3 (antibody, V domains shown)
VH: QVQLVQSGAEVKKPGASVKVSCKASGYAFSSQWMNWVRQAPGQRLEWIGRIYPGGGDTNYAGKFQGRVTITADTSASTAYMELSSLRSEDTAVYYCARLLRNQPGESYAMDYWGQGTLVTVSS
VL: DVVMTQSPDSLAVSLGERATINCRSSQSLVHSNRYTYLHWYQQKPGQSPKLLIYKVSNRFSGVPDRFSGSGSGTDFTLKISRVEAEDVGVYYCSQSTRVPYTFGQGTKLEIK
As to B3, the dissociation constant (Kd) in experiment [3] was 9.2 nM; in experiment [4], 8.7 nM. Further, the results for the concentration for a half-maximal effect (EC50) in experiment [5] and in experiment [6] were 7.25 nM and 33.7 nM, respectively.

B4: Reference antibody #1 (antibody, V domains shown)
VH: EVQLVQSGAEVKKPGESLKISCKGSGHSFTNYWIAWVRQMPGKGLEWMGIIYPGDSDTRYSPSFQGQVTISADKSISTAYLQWSSLKASDTAVYFCARQRTFYYDSSGYFDYWGQGTLVTVSS
VL: DIQMTQSPSSVSASVGDRVTITCRASQGISNWLAWYQQKPGKAPKLLIYAASSLQVGVPLRFSGSGSGTDFTLTISSLQPEDFATYYCQQADSFPRNFGQGTKLEIK
Take B4: the Kd in experiment [3] was found to be 14 nM; in experiment [4], 5.9 nM. Besides, the EC50 was determined as 32.6 nM in experiment [5] and 81.6 nM in experiment [6].

B5: Reference antibody #2 (antibody, V domains shown)
VH: EVQLVQSGAEVKKPGESLKISCKGSGYSFTSYWIAWVRQMPGKGLEWMGIIYPGDSDTRYSPSFQGQVTISADKSISTAYLQWSSLKASDTAMYFCARQRTFYYDSSDYFDYWGQGTLVTVSS
VL: DIQMTQSPSSVSASVGDRVTITCRASQGISSWLAWYQQKPGKAPKLLIYAASSLQNGVPSRFSGSGSGTDFTLTISSLQPEDFATYFCQQADSFPRTFGQGTKLEIK
In the case of B5, the results for the Kd in experiment [3] and in experiment [4] were 9.2 nM and 4.3 nM, respectively. In addition, the EC50 was 7.4 nM in experiment [5] and 6.5 nM in experiment [6].

B6: CL0020188-4 (antibody, V domains shown)
VH: EVQLVESGGGLVQPGGSLRLSCAGSGFTFTDFYMSWVRQAPGKGPEWLSVIRNKANGYTAGYNPSVKGRFTISRDNSKNTLYLQMNSLRAEDTAVYYCARLTYGFDYWGQGTLVTVSS
VL: DIVMTQTPLSLPVTPGEPASISCQSSKSLLHSTGKTYLNWYLQKPGQSPQLLIYWMSTRASGVPDRFSGSGSGTDFTLKISRVEAEDVGVYYCQQFLEYPFTFGQGTKVEIK
notes: Humanized variant of CL0020188 (hVH NG/3 m, hVL TG/graft); also called Clone CL0020188-4
Consider B6, for which the concentration for a half-maximal effect (EC50) in experiment [1] amounted to 0.44 nM; in experiment [5], 0.29 nM; in experiment [6], 0.28 nM. Besides, the results for the Kd in experiment [2], in experiment [3] and in experiment [4] were 4.8 nM, 1.5 nM and 1.4 nM, respectively.

B7: CL0020188-7 (antibody, V domains shown)
VH: EVQLVESGGGLVQPGGSLRLSCAASGFTFTDFYMSWVRQAPGKGLEWVSVIRNKANAYTAGYNPSVKGRFTISRDNSKNTLYLQMNSLRAEDTAVYYCARLTYGFDYWGQGTLVTVSS
VL: DIVMTQTPLSLPVTPGEPASISCQSSKSLLHSTGKTYLNWYLQKPGQSPQLLIYWMSTRASGVPDRFSGSGSGTDFTLKISRVEAEDVGVYYCQQFLEYPFTFGQGTKVEIK
notes: Humanized variant of CL0020188 (hVH NA/graft, hVL TG/graft); also called Clone CL0020188-7
Regarding B7, the half-maximal effective concentration (EC50) worked out at 0.68 nM in experiment [1], 0.75 nM in experiment [5] and 0.72 nM in experiment [6]. Besides, the results for the Kd in experiment [2], in experiment [3] and in experiment [4] were 10 nM, 2.8 nM and 3.3 nM, respectively.
